In patent US20040247614A1 (J DAVID GLADSTONE INSTITUTES, published 2004):

B1: synthetic unacetylated Tat (other)
chain: MEPVDPRLEPWKHPGSQPKTACTTCYCKKCCFHCQVCFTTKALGISYGRKKRRQRRRPPQGSQTHQVSLSKQ
notes: range 1-72; also called nonacetylated Tat
B2: synthetic Tat protein containing a single acetylated lysine at position 50 (AcTat) (other)
chain: B1 chain
modifications: acetylated lysine at position 50 (K50)
notes: range 1-72; also called acetylated Tat; K50-acetylated Tat

Target: T1, GST alone (UniProt P08515 1-218 = GST)
T1 construct: Control in the GST pulldown
Assay: GST pulldown, immunoblot with anti-Tat mAb

T1 sequence (P08515 whole entry): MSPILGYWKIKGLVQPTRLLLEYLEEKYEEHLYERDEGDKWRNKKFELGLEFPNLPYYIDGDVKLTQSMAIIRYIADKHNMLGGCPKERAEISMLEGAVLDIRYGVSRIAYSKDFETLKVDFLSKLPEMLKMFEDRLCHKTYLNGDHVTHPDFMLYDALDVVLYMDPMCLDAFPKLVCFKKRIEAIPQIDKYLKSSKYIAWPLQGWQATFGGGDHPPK

Row | Binder | binding result
1 | B1 | no binding
2 | B2 | no binding
